# Measurements taken from patent US20250145711A1 (Janssen / Centocor, published 2025).
# B1: BC3B129 (bispecific antibody, human IgG1, kappa, L234A L235A)
# chain: EIVLTQSPATLSASPGERVTLSCSASSSVSYMNWYQQKPGQAPRRWIYDSSKLASGVPARFSGSGSGRDYTLTISSLEPEDFAVYYCQQWSRNPPTFGGGTKVEIKGGSEGKSSGSGSESKSTGGSQVQLVQSGAEVKKPGSSVKVSCKASGYTFTRSTMHWVRQAPGQGLEWMGYINPSSAYTNYAQKFQGRVTLTADKSTSTAYMELSSLRSEDTAVYYCASPQVHYDYSGFPYWGQGTLVTVSSEPKSSDKTHTCPPCPAPEAAGGPSVFLFPPKPKDTLMISRTPEVTCVVVSVSHEDPEVKFNWYVDGVEVHNAKTKPREEQYNSTYRVVSVLTVLHQDWLNGKEYKCKVSNKALPAPIEKTISKAKGQPREPQVYVYPPSREEMTKNQVSLTCLVKGFYPSDIAVEWESNGQPENNYKTTPPVLDSDGSFALVSKLTVDKSRWQQGNVFSCSVMHEALHNHYTQKSLSLSPG
# heavy: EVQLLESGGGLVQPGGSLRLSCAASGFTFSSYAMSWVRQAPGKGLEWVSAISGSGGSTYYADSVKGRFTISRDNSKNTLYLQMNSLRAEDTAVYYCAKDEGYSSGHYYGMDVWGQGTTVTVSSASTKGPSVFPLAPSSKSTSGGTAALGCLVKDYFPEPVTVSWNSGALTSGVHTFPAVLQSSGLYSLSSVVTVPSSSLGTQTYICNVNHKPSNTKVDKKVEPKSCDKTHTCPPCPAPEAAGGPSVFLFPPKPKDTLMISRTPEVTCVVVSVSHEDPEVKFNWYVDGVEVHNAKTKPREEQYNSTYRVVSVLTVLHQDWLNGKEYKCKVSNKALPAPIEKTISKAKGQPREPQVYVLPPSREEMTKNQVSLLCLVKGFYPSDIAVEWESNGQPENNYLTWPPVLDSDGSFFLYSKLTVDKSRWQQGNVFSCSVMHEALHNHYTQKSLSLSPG
# light: EIVLTQSPGTLSLSPGERATLSCRASQSISSSFLTWYQQKPGQAPRLLIYGASSRATGIPDRFSGGGSGTDFTLTISRLEPEDFAVYYCQHYGSSPMYTFGQGTKLEIKRTVAAPSVFIFPPSDEQLKSGTASVVCLLNNFYPREAKVQWKVDNALQSGNSQESVTEQDSKDSTYSLSSTLTLSKADYEKHKVYACEVTHQGLSSPVTKSFNRGEC
# notes: IgG1 BCMAxCD3; HC1: CD3B2089-N106S LH scFv-Fc; also called BC3B129.001; B2089 LH NtoS
# B2: PSMB1060 (bispecific antibody, human IgG1, kappa, L234A L235A)
# heavy: not shown
# light: not shown
# chain: EIVLTQSPGTLSVSPGERATLSCRASQSVRSNLAWYQQKPGQAPRLLIYGASTRATGIPARFSGSGSGTEFTLTISSLQSEDFAVYYCHQYNDWPPYTFGQGTKLEIKGGSEGKSSGSGSESKSTGGSQVQLQESGGGVVQPGRSLRLSCAASGFTFSTYGMHWVRQAPGKGLEWVAFISYDGSNKYYADSVKGRFTISRDNSKHTLYLQMNSLRAEDTAVYYCAGRDNLRFLEWFMDVWGQGTTVTVSSEPKSSDKTHTCPPCPAPEAAGGPSVFLFPPKPKDTLMISRTPEVTCVVVSVSHEDPEVKFNWYVDGVEVHNAKTKPREEQYNSTYRVVSVLTVLHQDWLNGKEYKCKVSNKALPAPIEKTISKAKGQPREPQVYVLPPSREEMTKNQVSLLCLVKGFYPSDIAVEWESNGQPENNYLTWPPVLDSDGSFFLYSKLTVDKSRWQQGNVFSCSVMHEALHNHYTQKSLSLSPG
# notes: HC1 (ZWA): B23B62-Fab; LC2 is NA
# B3: PSMB1069 (bispecific antibody, human IgG1, kappa, L234A L235A)
# heavy: not shown
# light: not shown
# chain: QVQLVESGGGEVQPGRSLRLSCAASGFSFSGYGMHWVRQAPGKGLEWVAVMSYDGSNRFYVDSVRGRFSISRDNSKNTLYLQMNSLRPEDTAVYYCARDTVWGSHPDAFDIWGQGTVVTVSSGGSEGKSSGSGSESKSTGGSQSVLTQPPSVSVAPGQTARITCGGNNSGSKSVHWYQQKPGQAPVLVVYDDSDRPSGIPERFSGSNSGNTATLTISRVEAGDEADYYCQVWDSSSDHGVFGGGTKLTVLEPKSSDKTHTCPPCPAPEAAGGPSVFLFPPKPKDTLMISRTPEVTCVVVSVSHEDPEVKFNWYVDGVEVHNAKTKPREEQYNSTYRVVSVLTVLHQDWLNGKEYKCKVSNKALPAPIEKTISKAKGQPREPQVYVLPPSREEMTKNQVSLLCLVKGFYPSDIAVEWESNGQPENNYLTWPPVLDSDGSFFLYSKLTVDKSRWQQGNVFSCSVMHEALHNHYTQKSLSLSPG
# notes: as for B2
# B4: PSMB1068 (bispecific antibody, human IgG1, kappa, L234A L235A)
# heavy: not shown
# light: not shown
# chain: QVQLQESGGDVVQPGRSLRLSCAASGFSFSGYGLHWVRQAPGRGLEWVTLISYDGSNKYYADSVKGRFTISRDNSKNTLYLQMNSLRAEDTAVYYCAKTTVSDPYYYGMDVWGQGTTVTVSSGGSEGKSSGSGSESKSTGGSSYELTQPPSVSVAPGQTARITCGGNNIGSKSVHWYQQKPGQAPVLVVYDDSDRPSGIPERFSGTNSGNTATLTISRAEAGDEADYYCQVWDSSSDHVVFGGGTKLTVLEPKSSDKTHTCPPCPAPEAAGGPSVFLFPPKPKDTLMISRTPEVTCVVVSVSHEDPEVKFNWYVDGVEVHNAKTKPREEQYNSTYRVVSVLTVLHQDWLNGKEYKCKVSNKALPAPIEKTISKAKGQPREPQVYVLPPSREEMTKNQVSLLCLVKGFYPSDIAVEWESNGQPENNYLTWPPVLDSDGSFFLYSKLTVDKSRWQQGNVFSCSVMHEALHNHYTQKSLSLSPG
# notes: as for B2
# B5: PSMB1052 (bispecific antibody)
# heavy: not shown
# light: not shown
# chain: SYELTQPPSVSVAPGQTARITCGGNNIGSKSVHWYQQKPGQAPVLVVYDDSDRPSGIPERFSGSNSGNTATLTISRVEAGDEADYYCQVWDSSTDHVVFGGGTKLTVLGGSEGKSSGSGSESKSTGGSEVQLVESGGGVVQPGRSLRLSCAASGFTFSSYGMNWVRQAPGKGLEWVAVTSYDGSNKYYADSVKGRFTISRDISKNTLYLQMSSLRAEDTAVYYCARDPYSSSWNGAFDIWGPGTMVTVSSEPKSSDKTHTCPPCPAPEAAGGPSVFLFPPKPKDTLMISRTPEVTCVVVSVSHEDPEVKFNWYVDGVEVHNAKTKPREEQYNSTYRVVSVLTVLHQDWLNGKEYKCKVSNKALPAPIEKTISKAKGQPREPQVYVLPPSREEMTKNQVSLLCLVKGFYPSDIAVEWESNGQPENNYLTWPPVLDSDGSFFLYSKLTVDKSRWQQGNVFSCSVMHEALHNHYTQKSLSLSPG
# notes: as for B2
# B6: PSMB1075 (bispecific antibody, human IgG1, kappa, L234A L235A)
# heavy: not shown
# light: not shown
# chain: EVQLVESGGGVVQPGRSLRLSCAASGFSFSGYGMHWVRQAPGKGLEWVAVISYDGSNKYYADSVKGRFTISRDNSKNTLYLQMNSLRVEDTAVYYCARDRIWGSRGYYYGMDVWGQGTTVTVSSGGSEGKSSGSGSESKSTGGSQSALTQPASVSGSPGQSITISCTGASSDVGGYNYVSWYQQHPGKAPKLMIYEVSNRPSGVSNRFSGSKSGNTASLTISGLQAEDEADYYCSSYTITSTLVFGGGTKLTVLEPKSSDKTHTCPPCPAPEAAGGPSVFLFPPKPKDTLMISRTPEVTCVVVSVSHEDPEVKFNWYVDGVEVHNAKTKPREEQYNSTYRVVSVLTVLHQDWLNGKEYKCKVSNKALPAPIEKTISKAKGQPREPQVYVLPPSREEMTKNQVSLLCLVKGFYPSDIAVEWESNGQPENNYLTWPPVLDSDGSFFLYSKLTVDKSRWQQGNVFSCSVMHEALHNHYTQKSLSLSPG
# notes: as for B2
# B7: PSMB1047 (bispecific antibody, human IgG1, kappa, L234A L235A)
# heavy: not shown
# light: not shown
# chain: QSVLTQPPSVSVAPGQTARITCGGNNSGSKSVHWYQQKPGQAPVLVVYDDSDRPSGIPERFSGSNSGNTATLTISRVEAGDEADYYCQVWDSSSDHGVFGGGTKLTVLGGSEGKSSGSGSESKSTGGSQVQLVESGGGEVQPGRSLRLSCAASGFSFSGYGMHWVRQAPGKGLEWVAVMSYDGSNRFYVDSVRGRFSISRDNSKNTLYLQMNSLRPEDTAVYYCARDTVWGSHPDAFDIWGQGTVVTVSSEPKSSDKTHTCPPCPAPEAAGGPSVFLFPPKPKDTLMISRTPEVTCVVVSVSHEDPEVKFNWYVDGVEVHNAKTKPREEQYNSTYRVVSVLTVLHQDWLNGKEYKCKVSNKALPAPIEKTISKAKGQPREPQVYVLPPSREEMTKNQVSLLCLVKGFYPSDIAVEWESNGQPENNYLTWPPVLDSDGSFFLYSKLTVDKSRWQQGNVFSCSVMHEALHNHYTQKSLSLSPG
# notes: as for B2
# Target: T1, Human CD3 epsilon (CD3ε), on primary human pan T cells (human, UniProt P07766 23-207)
# T1 construct: Endogenous CD3 in the TCR complex on T cells; also called T-cell surface glycoprotein CD3 epsilon chain; T3E
# T1 sequence (P07766 23-207 limits assumed): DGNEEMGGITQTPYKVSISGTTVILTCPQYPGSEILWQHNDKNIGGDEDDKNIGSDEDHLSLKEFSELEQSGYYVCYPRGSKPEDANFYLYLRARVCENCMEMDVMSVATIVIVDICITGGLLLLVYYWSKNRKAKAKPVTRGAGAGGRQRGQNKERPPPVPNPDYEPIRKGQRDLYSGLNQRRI
# Experiment: flow cytometry on human T cells, anti-human IgG Fc A647 detection
# Protocol: The bsAbs were assayed for their abilities bind T cells and to induce T-cell mediated cytotoxicity against H929 cells (ATCC@CRL-9068™). […] Stain buffer with no antibody was added to bottom 4 wells and assign as background control (secondary antibody alone). Parental Cris7b, CD3B695 (bivalent mAb controls) and CD3B375 (bsAb which was monovalent for Cris-7b) were added also with full dose-response curves.
# Frozen T-cells were thawed in a 37° C. water bath and transferred gently into conical tube containing warm 5 mL media (RPMI+10% FBS)/1 vial of 1×10⁶ cells. Cells were mixed and centrifuged for 5 minutes at 400×g followed by resuspension in flow staining buffer, and counted and viability checked. Cells were then plated in 50 uL/50,000 cells/well into assay plates. Assay positive control mAb was added in the first column in quadruplicates at 2× at 20 nM in the bottom 4 wells. Stain buffer with no mAb was added to the top 4 wells and assigned as background controls (secondary antibody alone). Serially diluted antibody samples were added at 50 uL/well using Intergra Viaflo according to the attached plate maps and incubated for 1 hr at 37° C. After one hour incubation, 150 uL staining buffer were added to all wells, and cells were spun at 500×g for 5 minutes to pellet cells. Cells were then washed prior to addition of Alexa Fluor 647 (A647) conjugated anti human IgG Fc specific secondary detection antibody at 2 ug/mL in staining buffer. Secondary detection antibody was added at 50 uL/well to the washed cells. Plates were covered with foil and incubated for 30 minutes on ice or in the fridge. 150 uL staining buffer were added to all wells, and cells were spun at 500×g for 5 min to pellet cells. Cells were resuspended in 20 uL running buffer containing 1:1000 dilution of SYTOX™ green dead cell stain and run plates on iQue® Screener flow cytometer (Essen BioScience, Inc.). Briefly, cells were gated on FCS vs. SCS dot plot to eliminate debris. Singlets were gated on SCS-A vs SCS-H dot plot and from singlet population, live cells gated choosing BL1 channel for low/negative with SYTOX™ green viability stain (Thermo Fisher).
row,Binder,EC50 [nM]
1,B1,300

# Target: T1, Human CD3 epsilon (CD3ε), on primary …
# Experiment: cell-based or functional assay
row,Binder,H929 Killing EC50 [nM]
1,B1,10

# Target: T2, human PSMA on prostate cancer cell lines (22RV1, C4-2B) (human, UniProt Q04609 1-750)
# T2 construct: also called PSMA-expressing cell lines
# T2 sequence (Q04609 whole entry): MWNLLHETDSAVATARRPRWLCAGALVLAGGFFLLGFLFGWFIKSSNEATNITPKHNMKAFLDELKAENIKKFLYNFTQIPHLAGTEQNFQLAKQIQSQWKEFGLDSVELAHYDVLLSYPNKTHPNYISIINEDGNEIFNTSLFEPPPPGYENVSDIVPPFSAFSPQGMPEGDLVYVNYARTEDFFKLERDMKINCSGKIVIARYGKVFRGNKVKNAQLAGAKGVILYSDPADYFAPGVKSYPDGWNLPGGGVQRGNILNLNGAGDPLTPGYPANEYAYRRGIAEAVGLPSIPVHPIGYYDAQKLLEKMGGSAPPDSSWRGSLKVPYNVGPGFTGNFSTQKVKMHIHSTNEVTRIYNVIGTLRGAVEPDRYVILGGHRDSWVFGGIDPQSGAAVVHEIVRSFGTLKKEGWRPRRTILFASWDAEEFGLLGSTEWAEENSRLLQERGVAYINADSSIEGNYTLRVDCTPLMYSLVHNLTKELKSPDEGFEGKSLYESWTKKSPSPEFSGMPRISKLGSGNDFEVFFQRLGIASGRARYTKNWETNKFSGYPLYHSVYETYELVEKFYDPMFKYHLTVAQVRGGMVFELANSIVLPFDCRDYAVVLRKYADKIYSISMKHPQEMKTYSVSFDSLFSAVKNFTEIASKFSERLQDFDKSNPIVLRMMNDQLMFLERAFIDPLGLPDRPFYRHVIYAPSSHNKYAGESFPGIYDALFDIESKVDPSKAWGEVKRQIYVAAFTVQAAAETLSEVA
# Experiment: flow cytometry on C4-2B cells, four-parameter fit
# Protocol: Molecule concentrations ranged from 500-0 nM over 12-points at 3-fold dilution. […] Values reported in the Table 69 were generated by fitting the data to a four-parameter function for ligand binding generating values for y-min, y-max, EC50, and Hill. EC90 were calculated using the equation EC90=[…]\hat{ }(1/Hill)*EC50.
Binder,EC50 [nM],EC90 [nM],Y-max,Y-min
B2,11,59,1.6e+06,86000
B3,44,254,3.3e+06,87000
B4,8,247,1.9e+06,48000
B5,13,100,1.5e+06,68000
B6,30,156,1.3e+06,66000
B7,22,71,1.6e+06,79000

# Target: T3, recombinant human PSMA (human, UniProt Q04609 44-750)
# T3 construct: also called hu PSMA; prostate-specific membrane antigen
# T3 sequence (Q04609 44-750 limits assumed): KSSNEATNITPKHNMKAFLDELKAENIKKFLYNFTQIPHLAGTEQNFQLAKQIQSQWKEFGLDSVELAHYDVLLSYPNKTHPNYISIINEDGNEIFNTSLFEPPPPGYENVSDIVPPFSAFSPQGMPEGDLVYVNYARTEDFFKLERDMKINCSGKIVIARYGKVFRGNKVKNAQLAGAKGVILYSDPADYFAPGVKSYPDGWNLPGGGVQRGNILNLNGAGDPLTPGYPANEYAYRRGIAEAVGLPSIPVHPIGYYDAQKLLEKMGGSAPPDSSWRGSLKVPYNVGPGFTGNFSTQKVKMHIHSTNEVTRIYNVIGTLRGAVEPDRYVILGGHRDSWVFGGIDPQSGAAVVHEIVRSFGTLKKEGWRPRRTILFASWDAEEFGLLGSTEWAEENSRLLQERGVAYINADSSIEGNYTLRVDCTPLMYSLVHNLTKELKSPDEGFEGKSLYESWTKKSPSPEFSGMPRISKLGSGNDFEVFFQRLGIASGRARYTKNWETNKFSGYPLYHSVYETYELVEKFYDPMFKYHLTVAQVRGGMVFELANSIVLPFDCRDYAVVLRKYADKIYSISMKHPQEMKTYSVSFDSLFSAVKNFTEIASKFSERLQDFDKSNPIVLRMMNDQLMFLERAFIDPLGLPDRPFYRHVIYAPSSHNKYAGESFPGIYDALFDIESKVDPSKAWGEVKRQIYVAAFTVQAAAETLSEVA
# Experiment: SPR (Biacore 8K), antibody captured on anti-Fc, PSMA in solution
# Protocol: The antibodies were captured on a goat anti-Fc antibody-modified C1 chip and titrated with 3-fold serial dilutions of PSMA antigen spanning concentrations of 1 nM to 100 nM human PSMA. The association and dissociation were monitored for 3 and 30 minutes, respectively, using a flow rate of 50 μL/min. Raw binding data was referenced by subtracting the analyte binding signals from blanks and analyzed using a 1:1 Langmuir binding model by the Biacore Insight evaluation software to obtain the kinetics which were used to calculate the binding affinity. The anti-PSMA were captured using an anti-human Fc antibody and the antigens were injected in solution.
Binder,Kd [nM],koff [s⁻¹],kon [M⁻¹ s⁻¹]
B2,1.02,0.000119,117000
B3,1.42,0.000197,139000
B4,1.11,0.000168,151000
B5,1.61,0.000315,196000
B6,0.936,0.000492,526000
B7,2.52,0.00175,694000
